This data set addresses MBP-BnPHR1 (Brassica napus, UniProt W5QL02 1-417). The data set can be described thus: EMSA; EMSA: 750 mM KCl, 0.5 mM DTT, 0.5 mM EDTA, 50 mM Tris pH 7.4 (so in the source), room temperature, 20 min; native PAGE, SYBR Green then SYPRO Ruby stain. The conditions noted are these: protein: recombinant; tags: N-terminal MBP (pMAL-c2); chain copies: 2; label: none (SYBR Green post-stain); 5' overhang 4 nt on both strands (AATT and CCGG), 41 bp duplex. A general note: Mobility shift assays separate free from complexed probe on a gel.

MBP-BnPHR1, sequence (W5QL02 entry or part of it): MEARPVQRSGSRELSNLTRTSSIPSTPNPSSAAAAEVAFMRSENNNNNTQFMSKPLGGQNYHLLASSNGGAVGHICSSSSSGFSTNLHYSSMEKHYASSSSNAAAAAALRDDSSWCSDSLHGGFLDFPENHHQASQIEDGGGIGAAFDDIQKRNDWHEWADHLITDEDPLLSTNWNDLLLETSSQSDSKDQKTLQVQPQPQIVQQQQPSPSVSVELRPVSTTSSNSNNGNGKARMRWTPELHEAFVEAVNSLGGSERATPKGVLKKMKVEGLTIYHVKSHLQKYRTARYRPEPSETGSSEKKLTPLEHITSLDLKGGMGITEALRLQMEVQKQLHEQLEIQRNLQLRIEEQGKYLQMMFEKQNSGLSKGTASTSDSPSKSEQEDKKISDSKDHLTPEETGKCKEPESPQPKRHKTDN

B1: BnPT2 promoter probe (BnPT2p1/p2) (dsDNA)
DNA 1: AATTGGAGGGGAATATACCGAAACATTGTTGTATATTCATGTAAG
DNA 2: CCGGCTTACATGAATATACAACAATGTTTCGGTATATTCCCCTCC
Take B1: the binding result is “binds”.

These data come from publication PMC3430610, “Brassica napus PHR1 Gene Encoding a MYB-Like Protein Functions in Response to Phosphate Starvation”.
